The test concerns the target HCMV pentameric complex gH/gL/pUL128/pUL130/pUL131A (wild type Pentamer) (HCMV strain Merlin) (UniProt Q6SW67). The test is described as follows: method not stated.

Consider “8I21 with HCDR3 Trp105 mutated to alanine (Fab)”, for which the fold decrease in binding affinity (against unmutated 8I21) was above 150 fold.
